Data on three molecules can be found in patent US20210395381A1.

For this assay, the target named is recombinant mouse TfR-1 (mouse) (UniProt Q62351). Briefly: phage ELISA.

Positions count from the first letter of the chain named.

recombinant mouse TfR-1 (mouse), sequence (Q62351 89-763 limits assumed): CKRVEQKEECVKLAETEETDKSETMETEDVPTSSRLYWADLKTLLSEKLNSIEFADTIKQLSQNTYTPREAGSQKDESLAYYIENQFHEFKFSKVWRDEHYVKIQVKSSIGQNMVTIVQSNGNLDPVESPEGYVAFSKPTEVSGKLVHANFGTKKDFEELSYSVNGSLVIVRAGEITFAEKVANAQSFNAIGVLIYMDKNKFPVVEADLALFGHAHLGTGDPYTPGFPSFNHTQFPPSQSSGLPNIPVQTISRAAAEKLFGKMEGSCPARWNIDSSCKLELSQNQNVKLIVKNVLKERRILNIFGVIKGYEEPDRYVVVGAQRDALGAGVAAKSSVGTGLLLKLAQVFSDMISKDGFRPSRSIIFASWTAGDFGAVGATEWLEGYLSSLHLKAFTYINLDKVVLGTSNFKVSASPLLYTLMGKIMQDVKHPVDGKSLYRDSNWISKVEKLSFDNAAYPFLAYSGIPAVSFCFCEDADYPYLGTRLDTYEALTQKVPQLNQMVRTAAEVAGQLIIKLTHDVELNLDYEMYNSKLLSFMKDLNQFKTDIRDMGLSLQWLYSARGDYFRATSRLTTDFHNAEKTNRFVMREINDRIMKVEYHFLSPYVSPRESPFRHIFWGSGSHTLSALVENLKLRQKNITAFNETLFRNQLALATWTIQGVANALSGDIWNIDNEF

B1: Clone 8.17 (VNAR)
VNAR: ARVDQTPQTITKETGESLTINCVLRDSNCALPSTYWYRKKSGSTNEESISKGGRYVETVNSGSKSFSLRINDLTVEDSGTYRCKVIAYRKSIVRGCNYRKHDVYGDGTAVTVNA
Consider B1, for which the A450 was 0.091 A450.

B2: Clone 8.97 (VNAR)
VNAR: B1 VNAR with Y88Q, R89L, K90S, V93L, R99N, K100I, H101D
On to B2, for which the A450 is 0.053 A450.

B3: Clone 8.137 (VNAR)
VNAR: B1 VNAR with Y88Q, R89L, K90S, V93L, R99F, K100G, H101K
Regarding B3, the A450 was found to be 0.046 A450.
